In experiment [1] the target is T1, human DR4 (Death Receptor 4), cell surface expressed on human tumor cell lines (human, UniProt O00220 24-468).
T1 construct: also called TNFRSF10A; TRAIL-R1
T1 sequence: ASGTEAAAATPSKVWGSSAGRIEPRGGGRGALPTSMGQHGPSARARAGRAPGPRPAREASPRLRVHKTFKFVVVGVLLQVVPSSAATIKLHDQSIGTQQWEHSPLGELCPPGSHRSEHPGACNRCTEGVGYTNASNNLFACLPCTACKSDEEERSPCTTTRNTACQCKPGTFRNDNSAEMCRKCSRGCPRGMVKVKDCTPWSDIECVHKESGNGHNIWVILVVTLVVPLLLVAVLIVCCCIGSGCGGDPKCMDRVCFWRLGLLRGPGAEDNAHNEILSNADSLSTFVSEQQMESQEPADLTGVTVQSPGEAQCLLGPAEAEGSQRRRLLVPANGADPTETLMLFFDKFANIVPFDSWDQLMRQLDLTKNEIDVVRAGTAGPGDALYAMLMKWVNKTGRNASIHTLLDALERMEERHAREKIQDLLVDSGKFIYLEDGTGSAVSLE
The experiment can be described thus: flow cytometry, HCT-116 cells, n = 2.

Experiment [2] has as its target T2, human FAPα (Fibroblast activation protein alpha), cell surface expressed (human, UniProt Q12884 1-760).
T2 construct: Endogenous on human lung fibroblasts and CAFs
T2 sequence: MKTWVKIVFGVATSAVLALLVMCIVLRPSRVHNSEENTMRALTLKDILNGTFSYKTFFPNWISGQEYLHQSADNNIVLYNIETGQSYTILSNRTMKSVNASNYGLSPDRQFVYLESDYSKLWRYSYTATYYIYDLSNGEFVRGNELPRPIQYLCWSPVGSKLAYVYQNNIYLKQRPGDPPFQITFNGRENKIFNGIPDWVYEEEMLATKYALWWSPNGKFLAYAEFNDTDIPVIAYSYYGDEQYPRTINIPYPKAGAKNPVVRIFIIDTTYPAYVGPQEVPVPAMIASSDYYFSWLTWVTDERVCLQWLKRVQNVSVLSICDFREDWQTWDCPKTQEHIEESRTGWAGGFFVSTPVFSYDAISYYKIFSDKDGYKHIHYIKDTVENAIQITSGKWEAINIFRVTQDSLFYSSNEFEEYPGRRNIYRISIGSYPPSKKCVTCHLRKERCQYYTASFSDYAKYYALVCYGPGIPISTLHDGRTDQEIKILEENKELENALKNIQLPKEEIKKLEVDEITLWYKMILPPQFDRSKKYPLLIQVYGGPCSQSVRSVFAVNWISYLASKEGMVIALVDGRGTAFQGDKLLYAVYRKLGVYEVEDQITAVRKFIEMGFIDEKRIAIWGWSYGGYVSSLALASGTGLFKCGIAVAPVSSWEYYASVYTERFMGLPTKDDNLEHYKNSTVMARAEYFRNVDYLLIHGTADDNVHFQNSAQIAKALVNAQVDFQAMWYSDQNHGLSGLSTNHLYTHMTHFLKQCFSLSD
Nature of the experiment: flow cytometry, Expi293F cells expressing human FAPα, average ± SEM. As to the method:
(§1) Binding of BisG1-FAPα-FERL/DR4-FERR, BisG1-FAPα-FEAL/b12-FEAR and IgG1-FAPα-FERL to FAPα of species commonly used for nonclinical toxicology studies was assessed by flow cytometry using Expi293F cells transiently expressing FAPα from different animal species. IgG1-b12 was included as negative control.
(§2) Expi293F cells expressing recombinant FAPα from various species (human, cynomolgus monkey, dog, pig, rat or mouse) were seeded (20,000 cells/well) in 96-Well round bottom plates (Greiner Bio-one, Cat #650101). Antibody dilutions were prepared using FACS buffer, consisting of PBS (Capricorn Scientific, Cat #PBS-10XA, diluted to 1×PBS in distilled water)+1% BSA (Roche, Cat #10735086001)+0.02% Sodium Azide (Bio-World, Cat #41920044-3). Plates were centrifuged, supernatant was removed, and cells were resuspended in 100 μL of antibody dilutions (concentration range 30-0.00017 μg/mL with three-fold serial dilutions using FACS buffer) of BisG1-FAPα-FERL/DR4-FERR, BisG1-FAPα-FEAL/b12-FEAR, IgG1-FAPα-FERL and IgG1-b12 and incubated for 30 min at 4° C. […] After 30 min incubation at 4° C., cells were washed with FACS buffer and resuspended in FACS buffer supplemented with TO-PRO-3 Iodide viability marker (Invitrogen, Cat #T3605, diluted 1:4,000). Antibody binding to viable cells (gMFI of PE on TO-PRO-3 negative cells) was analyzed by flow cytometry on a FACS Celesta and FACS_Diva software (first two experiments) or iQue® 3 and FlowJo software (last experiment). gMFI was determined and visualized using GraphPad Prism. Binding curves were analyzed using nonlinear regression analysis. The concentration (pg/mL) at which 50% of the maximal effect was observed (EC₅₀) was derived from the fitted curves.

In experiment [3] the target is T2, human FAPα (Fibroblast activation …). The experiment can be described thus: flow cytometry, Expi293F cells expressing human FAPα, n = 2. As to the method:
as §1, §2
In general terms: Flow cytometry measures light scatter and fluorescence of single cells or particles in a stream.

For experiment [4], the target named is T3, cynomolgus monkey FAPα on Expi293F cells (cynomolgus monkey (Macaca fascicularis), UniProt Q12884 1-760 (human entry)).
T3 sequence: T2 sequence with S29P, V261F, E417D
The experiment can be described thus: flow cytometry, Expi293F cells expressing cynomolgus monkey FAPα, average ± SEM. On the procedure:
as §1, §2

Numbering of substitutions follows the chain as printed.

B1: BisG1-FAPα-FERL/DR4-FERR (bispecific antibody, human IgG1, kappa, lambda)
heavy 1: EVQLLESGGGLVQPGGSPRLSCEASGFTFSSYALSWVRQAPGKGLEWVSAISGSGGGRYYADSVKGRFTISRDNSKNTLFLQMNSLRAEDTAVYYCAKEGYSSSGTYWDHWGQGTLVTVSSASTKGPSVFPLAPSSKSTSGGTAALGCLVKDYFPEPVTVSWNSGALTSGVHTFPAVLQSSGLYSLSSVVTVPSSSLGTQTYICNVNHKPSNTKVDKRVEPKSCDKTHTCPPCPAPEFERGPSVFLFPPKPKDTLMISRTPEVTCVVVDVSHEDPEVKFNWYVDGVEVHNAKTKPREEQYNSTYRVVSVLTVLHQDWLNGKEYKCKVSNKALPAPIEKTISKAKGQPREPQVYTLPPSREEMTKNQVSLTCLVKGFYPSDIAVEWESNGQPENNYKTTPPVLDSDGSFLLYSKLTVDKSRWQQGNVFSCSVMHEALHNHYTQKSLSLSPG
light 1: AIQMTQSPSSVSASVGDRVTITCRASQGVSSWLAWYQQKPGRAPKLLIYVASTLQSGVPSRFSGSGSGTDFTLTINSLQPEDFATYYCQQANSFPPTFGQGTRLEMKRTVAAPSVFIFPPSDEQLKSGTASVVCLLNNFYPREAKVQWKVDNALQSGNSQESVTEQDSKDSTYSLSSTLTLSKADYEKHKVYACEVTHQGLSSPVTKSFNRGEC
heavy 2: QVQLQESGPGLVKPSGTLSLTCAVSGGSISSYSWWSWIRQPPGKGLEWIGELYHSGSTNYNPSLKSRVTISVDKSKNQFSLKLRSVTAADTAVYYCVRGVATIDYWGQGTLVTVSSASTKGPSVFPLAPSSKSTSGGTAALGCLVKDYFPEPVTVSWNSGALTSGVHTFPAVLQSSGLYSLSSVVTVPSSSLGTQTYICNVNHKPSNTKVDKRVEPKSCDKTHTCPPCPAPEFERGPSVFLFPPKPKDTLMISRTPEVTCVVVDVSHEDPEVKFNWYVDGVEVHNAKTKPREEQYNSTYRVVSVLTVLHQDWLNGKEYKCKVSNKALPAPIEKTISKAKGQPREPQVYTLPPSREEMTKNQVSLTCLVKGFYPSDIAVEWESNGQPENNYKTTPPVLDSDGSFFLYSRLTVDKSRWQQGNVFSCSVMHEALHNHYTQKSLSLSPG
light 2: QSALTQPPSASGSPGQSVTISCTGTSSDVGGYNFVSWYQQDPGKAPKLLIYEVTKRPSGVPDRFSGSKSGNTASLTVSGLQAEDEADYYCSSYAGSNNVMFGGGTKLTVLGQPKAAPSVTLFPPSSEELQANKATLVCLISDFYPGAVTVAWKADSSPVKAGVETTTPSKQSNNKYAASSYLSLTPEQWKSHRSYSCQVTHEGSTVEKTVAPTECS
notes: Human IgG1 bispecific made by controlled Fab-arm exchange of IgG1-FAPα-FERL and IgG1-DR4-FERR; monovalent for FAPα and for DR4; also called GEN1057
The term EC50 denotes the concentration at which the effect is half-maximal. For the molecule B1, the EC50 is 0.55 µg/mL in experiment [1], 0.24 µg/mL in experiment [2], 0.32 µg/mL in experiment [3] and 0.25 µg/mL in experiment [4].

B2: BisG1-b12-FERL/DR4-FERR (bispecific antibody, human IgG1, kappa, lambda)
heavy 1: QVQLVQSGAEVKKPGASVKVSCQASGYRFSNFVIHWVRQAPGQRFEWMGWINPYNGNKEFSAKFQDRVTFTADTSANTAYMELRSLRSADTAVYYCARVGPYSWDDSPQDNYYMDVWGKGTTVIVSSASTKGPSVFPLAPSSKSTSGGTAALGCLVKDYFPEPVTVSWNSGALTSGVHTFPAVLQSSGLYSLSSVVTVPSSSLGTQTYICNVNHKPSNTKVDKRVEPKSCDKTHTCPPCPAPEFERGPSVFLFPPKPKDTLMISRTPEVTCVVVDVSHEDPEVKFNWYVDGVEVHNAKTKPREEQYNSTYRVVSVLTVLHQDWLNGKEYKCKVSNKALPAPIEKTISKAKGQPREPQVYTLPPSREEMTKNQVSLTCLVKGFYPSDIAVEWESNGQPENNYKTTPPVLDSDGSFLLYSKLTVDKSRWQQGNVFSCSVMHEALHNHYTQKSLSLSPG
light 1: EIVLTQSPGTLSLSPGERATFSCRSSHSIRSRRVAWYQHKPGQAPRLVIHGVSNRASGISDRFSGSGSGTDFTLTITRVEPEDFALYYCQVYGASSYTFGQGTKLERKRTVAAPSVFIFPPSDEQLKSGTASVVCLLNNFYPREAKVQWKVDNALQSGNSQESVTEQDSKDSTYSLSSTLTLSKADYEKHKVYACEVTHQGLSSPVTKSFNRGEC
heavy 2: B1 heavy 2
light 2: B1 light 2
notes: Fab-arm exchange of IgG1-b12-FERL and IgG1-DR4-FERR; also called bsIgG1-ctrl-FERLxDR4-FERR
On to B2, for which, in experiment [1], the EC50 was 0.65 µg/mL.

The values above are taken from patent US20250002610A1 (Genmab, published 2025).
